In patent publication US11242370B2, “Neuregulin-4 compounds and methods of use” (Eli Lilly and Company, priority 2019, dated 2022):
Where a chain is given by its changes, count along the chain named. Names may count otherwise. Read-outs that look alike come from different tables or passages of the source. Bridges are numbered along the chain shown (N, C = ends). Where no end group is shown, it is not given here.

Key:
[1] = Day 4 (96 hours), steady state
Description: (§2) On Day 4, blood samples are collected to determine plasma concentration and the infusion pump is removed.

[2] = Plasma pharmacokinetics in rats (toxicology studies); settings: rats
Description: (§1) Example 11 is administered in a single 3 mg/kg dose to male and female monkeys by SC bolus injection.

in vivo [3] = settings: rat, plasma, sc
Description: as §2

in vivo [4] = settings: rat, plasma, sc, 2.18 mg/kg/day
Description: At the end of designated infusion phase, blood samples are collected to determine plasma concentration and the infusion pump is removed.

[5] = Plasma pharmacokinetics in monkeys (toxicology studies); settings: cynomolgus monkey, in vivo, sc
Description: as §1

human HER2 and HER4 = biological target: T1, human HER2 and HER4 (Homo sapiens, UniProt Q15303); test: Screening by human HER2-HER4 mediated ERK 1/2 phosphorylation in CHO-hHER2-hHER4 (clone 1H6) cells; assay type: cell-based; settings: Table 5; Fc variants as 293F supernatants; Examples average of two replicates ± standard deviation
T1 construct: expressed in transfected cells
Description: A cell based assay utilizing CHO-K1 cells overexpressing human or rat HER receptors is used to determine activity of NRG4 compounds. CHO-K1 cells (ATCC) are grown in DMEM-F12 3:1 with 5% FBS with 20 mM HEPES, 40 μg/mL L-Proline, lx antibiotics and were split 1:5 every 2-3 days with TripLE Express (Gibco). Cells are transfected with plasmid DNA encoding HER receptors in pairs (hHER2-3, hHER2-4, rHER2-3 and rHER2-4) with Fugene 6 (Promega) according to the manufacturer's instructions. […] Transfected cells are selected with Puromycin (12 ug/ml) and Hygromycin (1 mg/ml) for 3-4 weeks and clonal lines are obtained by limited dilution cloning into 96 well plates. Clonal lines are selected by appropriate gene expression of HER2, HER3 or HER4 by Taqman method. Lines with appropriate receptor expression are confirmed by NRG1 induced phospho-ERK 1/2 responses. Clones are grown up, harvested, aliquoted into cryovials and then frozen under liquid nitrogen for long-term storage.
A phospho-ERK1/2 activity assay is used to determine potencies of NRG4 compounds. The potency of Examples 1-8 and 10 as compared to WT human NRG1 and/or human NRG4 are analyzed in studies measuring stimulation of human HER2-HER4 mediated ERK 1/2 phosphorylation. This assay comprises a CHO-K1 stable line expressing human HER2 and HER4. CHO-hHER2-hHER4 (clone 1H6) cells are routinely cultured in DMEM: F12(3:1), 5% FBS, 40 μg/mL L-Proline, 10 μg/mL puromycin and 1 mg/mL hygromycin at 37° C., 5% CO2. Cells are washed twice with 1×PBS, dissociated with 0.05% trypsin/[…] EDTA and collected by centrifugation at 300×g for 10 m. Cells are re-suspended in maintenance media. 20,000 cells/well, in 30 μL, are seeded into 384 well Poly-D-Lysine cell culture plates (Greiner, Cat No. 781946). Plates are covered with a manufacturer's lid and moved to a 37° C. tissue culture incubator at 5% CO^2, 80%+ humidity and allowed to adhere. After 24 h, media are removed from the plates and replaced with 30 μL serum-free starvation media (Low glucose DMEM with 0.1% BSA) using a Biomek FX liquid handler. Plates are returned to the incubator for 24 h.
hFcNRG4 variants, transiently expressed as 293F supernatants, are prepared in starvation media in a clear 384W plate (Greiner, cat no. 781185) as a 4pt 1:8 serial dilution (dose range averaged between 250 pM to 140000 pM). Media are removed from the cell culture plates and the 30 uL/well prepared variants are stamped into the plates using a Biomek FX liquid handler. Plates are sealed with a foil seal and stimulated for 15 minutes at room temperature on an orbital shaker. Cells are then washed once with 50 uL cold PBS. 30 uL lysis buffer is added to the cells and oscillated for 10 m at RT on an orbital shaker.
Detection of phosphorylation of ERR 1/2 is performed with either an AlphaScreen SureFire phospho-ERK1/2 kit (T202/Y204) (Perkin Elmer, catalog no. TGRES) or an AlphaLISA® SureFire® Ultra™ p ERK1/2 assay kit together with the AlphaScreen Protein. A IgG Detection Kit (Protein-A) (PerkinElmer, catalogue no. 6760617). After lysis of the CHO-K1 cells. 4 μL lysate is transferred to a 384W Alpha Proxiplate (Perkin Elmer, cat no, 6008280) with a 384W Biomek FX. 4 uL positive and negative lysates (Perkin Elmer, TGRES-L) are added to available wells as controls. 5 uL/well acceptor mix (containing anti-phoso-Thr202/Tyr204 antibodies and Protein A conjugated acceptor beads) is added to the plate with a Forumlatrix Mantis. The plate is sealed, spun down for 1 min at 300×g and incubated for 2 hr at room temperature on an orbital shaker. 2 μL/well donor mix (containing strepavidin coated donor beads and biotinylated antibodies to a distal ERK1/2 epitope) is dispensed by Mantis. The plate is sealed, spun down for 1 min at 300×g and incubated for 2 hr at room temperature on an orbital shaker before reading on the Perkin Elmer Envision 2103 Multilabel Reader (HIS Alpha mode, excitation time: 40 ms, total measurement time: 130 ms). […]

[6] = biological target: T2, HER4 receptor extracellular domain (ECD) (Homo sapiens, UniProt Q15303); test: HER4/NRG-Fc binding assay (ELISA) for screening NRG4 variants
T2 construct: C-terminal His-tagged HER4 receptor extracellular domain (ECD) construct
T2 sequence (Q15303 26-651 limits assumed): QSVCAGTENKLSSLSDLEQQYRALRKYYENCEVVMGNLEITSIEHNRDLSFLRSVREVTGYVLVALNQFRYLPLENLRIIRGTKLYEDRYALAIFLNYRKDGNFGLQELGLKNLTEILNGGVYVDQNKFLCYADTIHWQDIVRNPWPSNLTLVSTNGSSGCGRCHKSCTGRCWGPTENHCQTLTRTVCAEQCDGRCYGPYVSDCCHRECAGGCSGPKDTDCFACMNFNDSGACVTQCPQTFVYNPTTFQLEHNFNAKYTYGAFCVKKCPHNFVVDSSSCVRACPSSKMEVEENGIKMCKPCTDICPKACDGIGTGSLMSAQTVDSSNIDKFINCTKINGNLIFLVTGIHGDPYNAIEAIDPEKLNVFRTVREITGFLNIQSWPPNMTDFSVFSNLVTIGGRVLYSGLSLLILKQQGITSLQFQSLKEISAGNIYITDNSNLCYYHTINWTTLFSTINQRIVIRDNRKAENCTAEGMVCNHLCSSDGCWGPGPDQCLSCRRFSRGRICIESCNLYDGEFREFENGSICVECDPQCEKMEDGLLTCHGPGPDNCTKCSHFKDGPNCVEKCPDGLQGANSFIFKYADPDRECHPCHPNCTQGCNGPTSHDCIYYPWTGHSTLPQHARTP
Description: A binding assay is utilized to perform high-throughput screening of NRG4 variant Fc fusion proteins to HER4 receptor, to identify affinity-driven variants with the potential to increase receptor activation and signaling. ELISA plates are coated with an anti-His tag antibody at 2 μg/ml in PBS to facilitate the standardized capture of a C-terminal His-tagged HER4 receptor extracellular domain (ECD) construct after blocking the plate with 1% BSA/PBS/0.1% Tween 20 (HER4 ECD at 5 μg/ml). Saturating amounts of unpurified NRG4-Fc variants in expression media (Starting at 10 μg/ml with serial dilutions in 1% BSA/PBS/0.1% Tween 20) are incubated with the captured receptor for 1 hour. After washing, bound variant NRG4-Fc is detected colorimetrically with an anti-human Fc-specific alkaline phosphatase secondary detection reagent to quantitate binding. Incubation times of variant binding to receptor or durations of the subsequent wash steps are varied to further identify binding variants driven by affinity on-rate and off-rate, respectively.

With “H-GGGGSGHEEPCGPSHKSFCLNGGLCYQIPTIPSPFCRCVENYTGARCEKVFL (disulfide 11-25, 19-36, 38-47 (inferred)) [Example 9]” the “Exposure in rat plasma, Mean” value ([1]; 2.18 mg/kg/day SC infusion) was 29.62 nM, the “Exposure in rat plasma, Mean” value ([1]; 7.28 mg/kg/day SC infusion) was 72.24 nM and the “half-life after SC administration” value [2] was “less than an hour”. For the same molecule, the level at time molar at 96 h (in vivo [3]; 0.22 mg/kg/day) was 2.59 nM, the level at time molar at 96 h (in vivo [3]; 0.73 mg/kg/day) was 9.94 nM and the level at time molar at 48 h (in vivo [4]) was 40.1 nM. The level at time molar at 72 h (in vivo [4]) was 47.3 nM, the level at time molar at 96 h (in vivo [4]) was 31.4 nM and the half-life [5] was < 5 h.

B1: Example 1: NRG4 D1G, (GGGGS)3 linker, SEQ ID NO: 10, fused to IgG Fc dimer SEQ ID NO: 6 and 7 (protein)
chain 1: GGGGSGGGGSGGGGSGHEEPCGPSHKSFCLNGGLCYVIPTIPSPFCRCVENYTGARCEEVFL
chain 2: ECPPCPAPPVAGPSVFLFPPKPKDTLMISRTPEVTCVVVDVSHEDPEVQFNWYVDGVEVHNAKTKPREEQFNSTFRVVSVLTVVHQDWLNGKEYKCKVSNKGLPAPIEKTISKTKGQPREPQVYTLPPSREEMTKNQVSLWCLVKGFYPSDIAVEWESNGQPENNYKTTPPVLDSDGSFFLYSKLTVDKSRWQQGNVFSCSVMHEALHNHYTQKSLSLSPG
chain 3: B1 chain 2 with W141S, L143A, Y182V
For B1, the EC50 (human HER2 and HER4) was 0.77 ± 0.16 nM, the “O.D. 405, binding to HER4 extracellular domain” value (from here on “O.D. 405, binding”) ([6]; Dose # 1: Example 1 10.65, WT NRG1 10, WT NRG4 17 μg/mL) was 1.485 and the “O.D. 405, binding” value ([6]; Dose # 2: Example 1 5.325, WT NRG1 5, WT NRG4 8.5 μg/mL) was 1.438. For the same molecule, the “O.D. 405, binding” value ([6]; Dose # 3: Example 1 2.6625, WT NRG1 2.5, WT NRG4 4.25 μg/mL) was 1.4, the “O.D. 405, binding” value ([6]; Dose # 4: Example 1 1.33125, WT NRG1 1.25, WT NRG4 2.125 μg/mL) was 1.332 and the “O.D. 405, binding” value ([6]; Dose # 5: Example 1 0.665625, WT NRG1 0.625, WT NRG4 1.0625 μg/mL) was 1.217. For the same molecule, the “O.D. 405, binding” value ([6]; Dose # 6: Example 1 0.332813, WT NRG1 0.3125, WT NRG4 0.53125 μg/mL) was 1.081, the “O.D. 405, binding” value ([6]; Dose # 7: Example 1 0.166406, WT NRG1 0.15625, WT NRG4 0.265625 μg/mL) was 0.865 and the “O.D. 405, binding” value ([6]; Dose # 8: Example 1 0.083203, WT NRG1 0.078125, WT NRG4 0.132813 μg/mL) was 0.607. The “O.D. 405, binding” value ([6]; Dose # 9: Example 1 0.041602, WT NRG1 0.039063, WT NRG4 0.066406 μg/mL) was 0.404, the “O.D. 405, binding” value ([6]; Dose # 10: Example 1 0.020801, WT NRG1 0.019531, WT NRG4 0.033203 μg/mL) was 0.235 and the “O.D. 405, binding” value ([6]; Dose # 11: Example 1 0.0104, WT NRG1 0.009766, WT NRG4 0.016602 μg/mL) was 0.136. The “O.D. 405, binding” value ([6]; Dose # 12: Example 1 0.0052, WT NRG1 0.004883, WT NRG4 0.008301 μg/mL) was 0.096.
